Data from article doi:10.1101/2024.12.23.630145, “Setdb1 and Atf7IP form a hetero-trimeric complex that blocks Setdb1 nuclear export” (bioRxiv, 2024).

B3: biotin-MBP-Atf7IP(574–666) (domain or fragment, human, UniProt Q6VMQ6 574-666, looked up)
chain: EEEYEAEFQVKITAKGDINQKLQKVIQWLLEEKLCALQCAVFDKTLAELKTRVEKIECNKRHKTVLTELQAKIARLTKRFEAAKEDLKKRHEH
modifications: biotin (on the Avi-tag)
notes: also called AviTag-MBP-Atf7IP; source: E. coli, co-expressed with birA with 40μM biotin, purified (MBPTrap, Superdex 200); not shown: AviTag, N-terminal, kept; MBP, N-terminal, kept

Legend:
[1] = biological target: B3; assay: AlphaScreen or HTRF; His-sumo-Setdb1 on nickel chelate acceptor beads, biotin-MBP-Atf7IP(574–666) on streptavidin donor beads; 20nM each, or one at 20nM and the other 0–20nM; 50mM MOPS, 50mM CHAPS, 50mM NaF, 100μg/ml BSA, pH7; room temperature; details: both partners purified
[2] = biological target: T1, GST-Setdb1(2–115) (human, UniProt Q15047 2-115); assay: pull-down; 0.5 μM GST fusion on glutathione Sepharose beads; 1.5 μM hCRM1 with or without 4.5 μM Ran^GTP; MBP-Atf7IP(574–666) pre-incubated at 3-fold or 15-fold excess; TB buffer (20mM HEPES 7.4, 110mM potassium acetate, 2mM magnesium acetate, 10% glycerol, 2mM DTT, 0.005% Tween20); Coomassie SDS-PAGE; details: both partners purified
T1 construct: also called GST-Setdb1(2–114); source: E. coli, purified (GSTTrap, Superdex 200); not shown: GST, N-terminal, kept

[3] = biological target: T2, His-sumo-Setdb1(2–115) (human, UniProt Q15047 2-115); assay: AlphaScreen or HTRF; His-sumo-Setdb1 on nickel chelate acceptor beads, biotin-MBP-Atf7IP(574–666) on streptavidin donor beads; 20nM each, or one at 20nM and the other 0–20nM; 50mM MOPS, 50mM CHAPS, 50mM NaF, 100μg/ml BSA, pH7; room temperature; details: both partners purified
T2 construct: source: E. coli (BL21DE3 or Rosetta2), purified (HisTrap, dialysis); not shown: His6, N-terminal, kept; SUMO, N-terminal, kept

[4] = biological target: the molecule itself; assay: SEC; isolated MBP-Atf7IP(574–666), gel filtration with and without Tween 20
[5] = biological target: the molecule itself; assay: native MS; co-expressed complex purified, exchanged into 400 mM ammonium acetate pH 7.9, 1 mM DTT; 500 nM; HCD 220 V for fragments
[6] = biological target: T3, MBP-Setdb1(2–115) (human, UniProt Q15047 2-115); assay: SEC-MALS; co-expressed complex purified by MBP affinity; Superdex 200 Increase 10/300 GL; about 400 μL at ~1 mg/mL; details: both partners purified
T3 construct: Printed mass 56.7 kDa; also called MBP-Setdb1(2–114); source: E. coli, co-expressed with its partners; complex purified (MBPTrap, Superdex 200); not shown: MBP, N-terminal, kept

[7] = biological target: the molecule itself; assay: cross-linking; MBP-Atf7IP(574–666) C608S C612S in isolation, purified on amylose beads, non-reducing; SDS-PAGE with and without BME

B1: 6Xhis-SUMO-Setdb1(Δα1- α2; residues 50–114) (domain or fragment, human, UniProt Q15047 50-114, looked up)
chain: KMDCVQQRKKQLAELETWVIQKESEVAHVDQLFDDASRAVTNCESLVKDFYSKLGLQYRDSSSED
notes: Setdb1, human, UniProt Q15047, residues 50–114 (helices α1 and α2 removed); source: E. coli (BL21DE3 or Rosetta2), purified (HisTrap, dialysis); not shown: His6, N-terminal, kept; SUMO, N-terminal, kept
binding as percent of WT [1]: ~30 % of WT

B2: 6Xhis-SUMO-Setdb1(Δα1; residues 35–114) (domain or fragment, human, UniProt Q15047 35-114, looked up)
chain: ISMEELRHFIDEELEKMDCVQQRKKQLAELETWVIQKESEVAHVDQLFDDASRAVTNCESLVKDFYSKLGLQYRDSSSED
notes: Setdb1, human, UniProt Q15047, residues 35–114 (helix α1 with NES#1 removed); source: E. coli (BL21DE3 or Rosetta2), purified (HisTrap, dialysis); not shown: His6, N-terminal, kept; SUMO, N-terminal, kept
binding as percent of WT [1]: ~80 % of WT

B3
binding result [2]: binds | binding result [3]: binds | binding result [4]: binds

B4: 6Xhis-SUMO-Atf7IP(574–666) (domain or fragment, human, UniProt Q6VMQ6 574-666, looked up)
chain: EEEYEAEFQVKITAKGDINQKLQKVIQWLLEEKLCALQCAVFDKTLAELKTRVEKIECNKRHKTVLTELQAKIARLTKRFEAAKEDLKKRHEH
notes: Printed mass 23.2 kDa; not shown: His6, N-terminal, kept; SUMO, N-terminal, kept
binding result [5]: binds | stoichiometry N [6]: 2 Atf7IP per Setdb1

B5: MBP-Atf7IP (574–666) C608S C612S (domain or fragment, human, UniProt Q6VMQ6 574-666, looked up)
chain: EEEYEAEFQVKITAKGDINQKLQKVIQWLLEEKLSALQSAVFDKTLAELKTRVEKIECNKRHKTVLTELQAKIARLTKRFEAAKEDLKKRHEH
notes: also called Atf7IP(C631); not shown: MBP, N-terminal, kept
binding result [7]: binds
